The source of these data is paper PMC2779587, “Domain Requirements and Sequence Specificity of DNA Binding for the Forkhead Transcription Factor FOXP3”.

One series deals with FOXP3 full length (human, UniProt Q9BZS1 1-431). Briefly: EMSA; 12 mM HEPES pH 7.5, 100 mM NaCl, 1 mM DTT, 1 mM EDTA, 12% glycerol, 20 µg/ml poly(dI)-poly(dC), room temperature 20 min. Conditions: protein: ivt; chain copies: 2; label: 32P 5' end; blunt. In general terms: In EMSA bound probe runs differently from free probe, usually more slowly.
Sequence of FOXP3 full length (Q9BZS1 whole entry): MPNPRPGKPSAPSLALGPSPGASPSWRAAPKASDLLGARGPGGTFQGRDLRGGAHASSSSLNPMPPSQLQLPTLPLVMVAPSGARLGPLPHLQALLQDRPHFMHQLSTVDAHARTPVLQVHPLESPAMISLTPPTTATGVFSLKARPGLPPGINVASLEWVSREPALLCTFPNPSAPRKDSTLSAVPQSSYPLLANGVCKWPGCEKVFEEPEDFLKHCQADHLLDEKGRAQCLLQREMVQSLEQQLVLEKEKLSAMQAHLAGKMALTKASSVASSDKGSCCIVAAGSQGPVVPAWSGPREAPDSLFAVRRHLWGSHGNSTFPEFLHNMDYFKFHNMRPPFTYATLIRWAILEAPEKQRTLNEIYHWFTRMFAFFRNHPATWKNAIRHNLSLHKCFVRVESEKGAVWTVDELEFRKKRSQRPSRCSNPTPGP
In series [1] the target is T1, FOXP3-ΔN (human, UniProt Q9BZS1 182-431). Described as above. The settings on record: protein: ivt; chain copies: 2; label: 32P 5' end; blunt.
T1 sequence (Q9BZS1 182-431, stated change not applied): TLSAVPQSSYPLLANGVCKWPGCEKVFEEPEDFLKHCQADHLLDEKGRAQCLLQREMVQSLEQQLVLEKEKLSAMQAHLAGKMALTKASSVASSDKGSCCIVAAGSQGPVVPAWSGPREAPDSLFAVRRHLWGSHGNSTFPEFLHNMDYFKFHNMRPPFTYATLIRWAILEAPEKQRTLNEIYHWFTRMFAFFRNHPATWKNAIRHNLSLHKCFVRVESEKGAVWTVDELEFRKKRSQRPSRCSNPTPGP
In series [2] the target is T1, FOXP3-ΔN. The series is described as above. The settings on record: protein: ivt; chain copies: 2; label: 32P 5' end; blunt. The source holds these as a separate data set.
Another series concerns the target FOXP3-ΔN delE251 (human, UniProt Q9BZS1 182-431, del251-251). Described as above. Conditions: protein: ivt; chain copies: 2; label: 32P 5' end; blunt.
A further series concerns the target FOXP3-ΔN ΔFKH (human, UniProt Q9BZS1 182-336). The description is as above. The settings on record: protein: ivt; label: 32P 5' end; blunt.
In the next series the target is FOXP3-ΔN delK250 (human, UniProt Q9BZS1 182-431, del250-250). The description is as above. Conditions: protein: ivt; chain copies: 2; label: 32P 5' end; blunt.
Sequence of FOXP3-ΔN delK250 (Q9BZS1 other isoform, or with tags, fused parts or gaps del250-250 | mutant): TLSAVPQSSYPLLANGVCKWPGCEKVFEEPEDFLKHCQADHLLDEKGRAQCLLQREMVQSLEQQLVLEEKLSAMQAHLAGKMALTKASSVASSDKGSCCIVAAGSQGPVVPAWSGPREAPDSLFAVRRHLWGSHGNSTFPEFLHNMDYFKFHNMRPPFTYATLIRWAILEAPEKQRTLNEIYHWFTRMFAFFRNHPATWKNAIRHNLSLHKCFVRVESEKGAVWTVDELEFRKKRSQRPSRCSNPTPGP
In another series the target is FOXP3-ΔN C204S (human, UniProt Q9BZS1 182-431, C204S). Briefly: EMSA; not influenced by mutation; 12 mM HEPES pH 7.5, 100 mM NaCl, 1 mM DTT, 1 mM EDTA, 12% glycerol, 20 µg/ml poly(dI)-poly(dC), room temperature 20 min. The settings on record: protein: ivt; chain copies: 2; label: 32P 5' end; blunt.
Sequence of FOXP3-ΔN C204S (Q9BZS1 182-431 C204S): as the sequence (Q9BZS1 182-431, stated change not applied) above, with C23S counted along it
Series [3] concerns the target T1, FOXP3-ΔN. Briefly: EMSA; binding more than doubled; 12 mM HEPES pH 7.5, 100 mM NaCl, 1 mM DTT, 1 mM EDTA, 12% glycerol, 20 µg/ml poly(dI)-poly(dC), room temperature 20 min. Conditions: protein: ivt; chain copies: 2; label: 32P 5' end; blunt.
A further series deals with Foxp1A full length (mouse, UniProt P58462 1-705). Briefly: EMSA; 12 mM HEPES pH 7.5, 100 mM NaCl, 1 mM DTT, 1 mM EDTA, 12% glycerol, 20 µg/ml poly(dI)-poly(dC), room temperature 20 min. Conditions: protein: ivt; tags: HA; chain copies: 2; label: 32P 5' end; blunt.
Sequence of Foxp1A full length (P58462 whole entry, the tested form may be a part): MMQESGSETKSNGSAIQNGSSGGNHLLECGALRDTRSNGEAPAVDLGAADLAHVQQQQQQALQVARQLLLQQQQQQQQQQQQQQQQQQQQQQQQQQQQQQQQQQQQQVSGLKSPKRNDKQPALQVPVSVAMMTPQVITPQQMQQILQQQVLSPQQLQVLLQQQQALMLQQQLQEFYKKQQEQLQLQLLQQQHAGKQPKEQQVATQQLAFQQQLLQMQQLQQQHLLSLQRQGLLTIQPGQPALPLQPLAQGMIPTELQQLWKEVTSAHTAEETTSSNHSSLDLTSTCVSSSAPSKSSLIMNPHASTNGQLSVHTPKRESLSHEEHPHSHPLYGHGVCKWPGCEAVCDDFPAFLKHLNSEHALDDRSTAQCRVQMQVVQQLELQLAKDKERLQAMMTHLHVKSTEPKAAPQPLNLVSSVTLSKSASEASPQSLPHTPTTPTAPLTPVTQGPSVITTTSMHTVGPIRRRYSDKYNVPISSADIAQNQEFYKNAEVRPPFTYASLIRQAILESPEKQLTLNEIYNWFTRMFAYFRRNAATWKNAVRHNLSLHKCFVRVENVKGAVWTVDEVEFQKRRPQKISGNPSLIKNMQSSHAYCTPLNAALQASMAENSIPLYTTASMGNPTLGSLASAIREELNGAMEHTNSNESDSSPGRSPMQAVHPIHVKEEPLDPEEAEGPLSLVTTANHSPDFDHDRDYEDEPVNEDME
In a further series the target is T2, FOXP3 FKH domain (UniProt Q9BZS1 337-423).
T2 sequence: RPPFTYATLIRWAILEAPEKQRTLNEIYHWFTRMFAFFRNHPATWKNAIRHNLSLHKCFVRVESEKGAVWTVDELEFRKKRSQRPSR
The series is described as above. The settings on record: chain copies: 2; label: 32P 5' end; blunt.

Series [4] deals with T1, FOXP3-ΔN. The series is described as above. Conditions: protein: ivt; chain copies: 2; label: 32P 5' end; blunt. This is another data set of the same source.

Where only a bound is given, the exact number is not on record here.

Sequence of FOXP3-ΔN delE251 (Q9BZS1 other isoform, or with tags, fused parts or gaps del251-251 | mutant): as the sequence (Q9BZS1 other isoform, or with tags, fused parts or gaps del250-250 | mutant) above, with E69K counted along it
Sequence of FOXP3-ΔN ΔFKH (Q9BZS1 182-336, stated change not applied): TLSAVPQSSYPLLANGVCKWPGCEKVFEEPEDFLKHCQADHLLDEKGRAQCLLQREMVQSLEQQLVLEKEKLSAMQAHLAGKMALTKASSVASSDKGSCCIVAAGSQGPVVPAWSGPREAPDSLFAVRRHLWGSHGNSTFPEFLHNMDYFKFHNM

B1: A'' (A2-A2) (dsDNA)
DNA 1: CAAGACAAATAAGACAACACAAATAA
DNA 2: TTATTTGTGTTGTCTTATTTGTCTTG
As for B1, the binding result in the series with FOXP3 full length and with FOXP3-ΔN [1] was “no binding” throughout.

B2: A' (25 bp), 10-bp spacing (dsDNA)
DNA 1: CAAGGTAAACAAGAGTAAACAAGTC
DNA 2: GACTTGTTTACTCTTGTTTACCTTG
Regarding B2, the binding signal with FOXP3-ΔN [2] is about 3 fold versus 14-bp spacing.

B3: A' (A1-A1) (dsDNA)
DNA 1: CAAGGTAAACAAGACAACGTAAACAA
DNA 2: TTGTTTACGTTGTCTTGTTTACCTTG
Regarding B3, the binding result is listed as “no binding” with FOXP3-ΔN delE251; “no binding” in the series with FOXP3 full length; “no binding” with FOXP3-ΔN ΔFKH; “no binding” with FOXP3-ΔN delK250; “binds” with FOXP3-ΔN C204S. In addition, the binding signal in the series with FOXP3-ΔN [3] is over 2 fold versus A probe.

B4: A' (GC) (dsDNA)
DNA 1: CAAGGCAAACAAGACAACGCAAACAA
DNA 2: TTGTTTGCGTTGTCTTGTTTGCCTTG
As to B4, in the series with FOXP3-ΔN [1], the binding result is listed as “no binding”.

B5: A (A1-A2) (dsDNA)
DNA 1: CAAGGTAAACAAGACAACACAAATAA
DNA 2: TTATTTGTGTTGTCTTGTTTACCTTG
As for B5, the results for the binding result in the series with FOXP3 full length, with Foxp1A full length and with FOXP3 FKH domain were “no binding”, “binds” and “no binding”, respectively.

B6: A' (35 bp), 20-bp spacing (dsDNA)
DNA 1: CAAGGTAAACAAGACAACACGATTGTAAACAAGTC
DNA 2: GACTTGTTTACAATCGTGTTGTCTTGTTTACCTTG
Molecule B6 gave a binding signal in the series with FOXP3-ΔN [2] of about 3 fold versus 14-bp spacing.

B7: A' (AT) (dsDNA)
DNA 1: CAAGATAAACAAGACAACATAAACAA
DNA 2: TTGTTTATGTTGTCTTGTTTATCTTG
For B7, the binding signal in the series with FOXP3-ΔN [4] is < 0.5 fold versus A' (GT).
